In patent publication US20160002331A1 (Pfizer, published 2016):
Numbering of substitutions follows the chain as printed. Names and notes keep the numbering of the source. Values joined by “and” are separate entries in the source; they are usually repeats but may differ in a detail not shown here. Equal values may be shown once. Read-outs that look alike come from different tables or passages of the source.

What was measured:
[1] = target: T1, full-length human Notch1 expressed on the cell surface (human, UniProt P46531 19-2555); experiment: cell-based or functional assay
[2] = target: T2, full-length mouse Notch1 expressed on the cell surface of U-2 OS cells (mouse, UniProt Q01705 19-2531); experiment: cell-based or functional assay
[3] = target: T3, human Notch1 NRR_Avi_His recombinant protein (human, UniProt P46531 1434-1737); experiment: SPR (Biacore T100), ratio of KD to that of rat 351
T3 construct: Secreted from CHO-PACE cells; cleaved at S1 into an N-terminal ~26 kDa half (LNR-A, B, C, HD1) and a C-terminal ~12 kDa half (HD2 and tag) that stay associated non-covalently; written here as one chain; also called recombinant human Notch1 NRR; human Notch1 NRR immunogen
T3 sequence: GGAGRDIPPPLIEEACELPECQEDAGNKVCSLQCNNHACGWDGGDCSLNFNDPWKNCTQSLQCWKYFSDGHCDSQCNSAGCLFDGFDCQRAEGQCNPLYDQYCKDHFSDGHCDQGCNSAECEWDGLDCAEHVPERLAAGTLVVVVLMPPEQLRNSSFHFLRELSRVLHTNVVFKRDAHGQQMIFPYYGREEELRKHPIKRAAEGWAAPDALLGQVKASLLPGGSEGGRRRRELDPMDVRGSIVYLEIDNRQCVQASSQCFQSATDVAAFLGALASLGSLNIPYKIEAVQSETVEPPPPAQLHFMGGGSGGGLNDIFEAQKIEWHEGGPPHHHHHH

[4] = target: T1, full-length human Notch1 expressed on …; experiment: cell-based ELISA, U-2 OS cells expressing full-length human Notch1
Procedure: (§1) Supernatants from clones displaying positive binding to immunogens in recombinant Notch1 NRR based ELISAs described above were then screened for cell surface Notch1 binding in a cell-based ELISA. U-2 OS cells stably overexpressing human or mouse full length Notch1 protein on cell surface were plated at 50,000 cells/well in 96 well plates (white opaque, BD/VWR) the day before ELISA assay. On the day of the ELISA, culture media were removed from wells and serially diluted (1:3 in blocking buffer) antibody solutions or hybridoma culture supernatants were applied to the plate. Plates were incubated at room temperature for 2 hours before being washed with PBS-Mg/Ca. HRP-conjugated secondary antibody was then applied and incubated with cells for 1 hour as described above for recombinant protein ELISA. Plates were washed with PBS-Mg/Ca before being developed with Pico-Chemiluminescent developing kit (Thermal Scientific), and chemiluminescence measurements were performed per manufacturer's instructions. Data plotting and analyses were performed with Microsoft Excel and Graphpad-Prizm software.

[5] = target: T2, full-length mouse Notch1 expressed on …; experiment: cell-based ELISA, U-2 OS cells expressing full-length mouse Notch1
Procedure: as §1

[6] = target: T3, human Notch1 NRR_Avi_His recombinant …; experiment: SPR (Biacore T100), antibody captured by anti-human IgG-Fc, NRR_Avi_His as analyte, 1:1 Langmuir model
Procedure: (§2) The kinetic constants of the anti-Notch1 NRR interactions were determined by surface plasmon resonance (Biacore® T100, Biacore Inc., Piscataway, N.J.). Flow cells of a CM5 chip were immobilized with approximately 10,000 Resonance Unit (RU) of anti-human IgG-Fc (Biacore®) in 10 mM Glycine, pH 5.0 at 10 μl/min for 600 seconds. […] Association of four concentrations of human Notch1 NRR_Avi_His recombinant protein (from 3.7-100 nM) and a zero concentration (running buffer) at 100 μl/min were recorded for 3 minutes in TBS with 1 mM CaCl₂. Dissociation of the complexes was measured for 10 minutes. The surface of the chip was regenerated by injecting 3M MgCl₂ with 3 mM EGTA for 60 seconds at 10 μl/min. Curves obtained after subtraction of the reference and buffer signals were fitted to a 1:1 Langmuir binding model with Biacore® T100 Evaluation Software (Biacore®).

[7] = target: T1, full-length human Notch1 expressed on …; experiment: competition ELISA on U-2 OS cells expressing full-length human Notch1; competitor 0.8 nM biotinylated rat 351
Procedure: (§3) In a similar manner as described for recombinant protein or cell based ELISAs, 96 well cell culture plates were either coated with Notch1 NRR-Avi_His protein (hi-bound co-Star plates), or seeded with full length Notch1 expressing U-2 OS cells (cell culture plate, Co-star), respectively.
(§4) After incubation for 2 hours, the plates were washed, as described above, and HRP-conjugated streptavidin (Southern Biotech) diluted 1:5000 in blocking buffer was applied. Incubation with streptavidin was allowed for 30 min before the plates were washed again and developed with TMB solution for 10 minutes. Developing reaction was stopped by adding 0.18M H₂SO₄ and absorbance at 450 nm was measured. Data plotting and analyses were performed with Microsoft Excel and Graphpad-Prizm software.

[8] = target: T1, full-length human Notch1 expressed on …; experiment: cell-based or functional assay; remark: listed apart in the source
[9] = target: T2, full-length mouse Notch1 expressed on …; experiment: cell-based or functional assay; remark: listed apart in the source
[10] = target: T4, Notch1 receptor with L1575P mutation (HPB-ALL cells) (UniProt P46531 19-2555, limits assumed); experiment: cell-based or functional assay
[11] = target: T3, human Notch1 NRR_Avi_His recombinant …; experiment: SPR (Biacore T100), ratio of KD to that of rat 438-hIgG1
Procedure: as §2

[12] = target: T3, human Notch1 NRR_Avi_His recombinant …; experiment: competition ELISA on coated human Notch1 NRR_Avi_His; competitor 0.8 nM biotinylated rat 438
Procedure: as §3, §4

[13] = target: T1, full-length human Notch1 expressed on …; experiment: competition ELISA on U-2 OS cells expressing full-length human Notch1; competitor 0.8 nM biotinylated rat 438
Procedure: as §3, §4

[14] = target: T1, full-length human Notch1 expressed on …; experiment: cell-based or functional assay; remark: listed apart in the source
[15] = target: T4, Notch1 receptor with L1575P mutation …; experiment: cell-based or functional assay; remark: listed apart in the source
[16] = target: Notch1 receptor with a 12 amino acid insertion at position 1595 (CCRF-CEM cells) (UniProt P46531 19-2555); experiment: cell-based or functional assay
[17] = target: T1, full-length human Notch1 expressed on …; experiment: cell-based or functional assay; remark: listed apart in the source
[18] = target: T1, full-length human Notch1 expressed on …; experiment: cell-based or functional assay; remark: listed apart in the source
[19] = target: T2, full-length mouse Notch1 expressed on …; experiment: cell-based or functional assay; remark: listed apart in the source
[20] = target: T1, full-length human Notch1 expressed on …; experiment: cell-based or functional assay; remark: listed apart in the source

Chain of Notch1 receptor with a 12 amino acid insertion at position 1595 (CCRF-CEM cells) (P46531 other isoform, or with tags, fused parts or gaps limits assumed): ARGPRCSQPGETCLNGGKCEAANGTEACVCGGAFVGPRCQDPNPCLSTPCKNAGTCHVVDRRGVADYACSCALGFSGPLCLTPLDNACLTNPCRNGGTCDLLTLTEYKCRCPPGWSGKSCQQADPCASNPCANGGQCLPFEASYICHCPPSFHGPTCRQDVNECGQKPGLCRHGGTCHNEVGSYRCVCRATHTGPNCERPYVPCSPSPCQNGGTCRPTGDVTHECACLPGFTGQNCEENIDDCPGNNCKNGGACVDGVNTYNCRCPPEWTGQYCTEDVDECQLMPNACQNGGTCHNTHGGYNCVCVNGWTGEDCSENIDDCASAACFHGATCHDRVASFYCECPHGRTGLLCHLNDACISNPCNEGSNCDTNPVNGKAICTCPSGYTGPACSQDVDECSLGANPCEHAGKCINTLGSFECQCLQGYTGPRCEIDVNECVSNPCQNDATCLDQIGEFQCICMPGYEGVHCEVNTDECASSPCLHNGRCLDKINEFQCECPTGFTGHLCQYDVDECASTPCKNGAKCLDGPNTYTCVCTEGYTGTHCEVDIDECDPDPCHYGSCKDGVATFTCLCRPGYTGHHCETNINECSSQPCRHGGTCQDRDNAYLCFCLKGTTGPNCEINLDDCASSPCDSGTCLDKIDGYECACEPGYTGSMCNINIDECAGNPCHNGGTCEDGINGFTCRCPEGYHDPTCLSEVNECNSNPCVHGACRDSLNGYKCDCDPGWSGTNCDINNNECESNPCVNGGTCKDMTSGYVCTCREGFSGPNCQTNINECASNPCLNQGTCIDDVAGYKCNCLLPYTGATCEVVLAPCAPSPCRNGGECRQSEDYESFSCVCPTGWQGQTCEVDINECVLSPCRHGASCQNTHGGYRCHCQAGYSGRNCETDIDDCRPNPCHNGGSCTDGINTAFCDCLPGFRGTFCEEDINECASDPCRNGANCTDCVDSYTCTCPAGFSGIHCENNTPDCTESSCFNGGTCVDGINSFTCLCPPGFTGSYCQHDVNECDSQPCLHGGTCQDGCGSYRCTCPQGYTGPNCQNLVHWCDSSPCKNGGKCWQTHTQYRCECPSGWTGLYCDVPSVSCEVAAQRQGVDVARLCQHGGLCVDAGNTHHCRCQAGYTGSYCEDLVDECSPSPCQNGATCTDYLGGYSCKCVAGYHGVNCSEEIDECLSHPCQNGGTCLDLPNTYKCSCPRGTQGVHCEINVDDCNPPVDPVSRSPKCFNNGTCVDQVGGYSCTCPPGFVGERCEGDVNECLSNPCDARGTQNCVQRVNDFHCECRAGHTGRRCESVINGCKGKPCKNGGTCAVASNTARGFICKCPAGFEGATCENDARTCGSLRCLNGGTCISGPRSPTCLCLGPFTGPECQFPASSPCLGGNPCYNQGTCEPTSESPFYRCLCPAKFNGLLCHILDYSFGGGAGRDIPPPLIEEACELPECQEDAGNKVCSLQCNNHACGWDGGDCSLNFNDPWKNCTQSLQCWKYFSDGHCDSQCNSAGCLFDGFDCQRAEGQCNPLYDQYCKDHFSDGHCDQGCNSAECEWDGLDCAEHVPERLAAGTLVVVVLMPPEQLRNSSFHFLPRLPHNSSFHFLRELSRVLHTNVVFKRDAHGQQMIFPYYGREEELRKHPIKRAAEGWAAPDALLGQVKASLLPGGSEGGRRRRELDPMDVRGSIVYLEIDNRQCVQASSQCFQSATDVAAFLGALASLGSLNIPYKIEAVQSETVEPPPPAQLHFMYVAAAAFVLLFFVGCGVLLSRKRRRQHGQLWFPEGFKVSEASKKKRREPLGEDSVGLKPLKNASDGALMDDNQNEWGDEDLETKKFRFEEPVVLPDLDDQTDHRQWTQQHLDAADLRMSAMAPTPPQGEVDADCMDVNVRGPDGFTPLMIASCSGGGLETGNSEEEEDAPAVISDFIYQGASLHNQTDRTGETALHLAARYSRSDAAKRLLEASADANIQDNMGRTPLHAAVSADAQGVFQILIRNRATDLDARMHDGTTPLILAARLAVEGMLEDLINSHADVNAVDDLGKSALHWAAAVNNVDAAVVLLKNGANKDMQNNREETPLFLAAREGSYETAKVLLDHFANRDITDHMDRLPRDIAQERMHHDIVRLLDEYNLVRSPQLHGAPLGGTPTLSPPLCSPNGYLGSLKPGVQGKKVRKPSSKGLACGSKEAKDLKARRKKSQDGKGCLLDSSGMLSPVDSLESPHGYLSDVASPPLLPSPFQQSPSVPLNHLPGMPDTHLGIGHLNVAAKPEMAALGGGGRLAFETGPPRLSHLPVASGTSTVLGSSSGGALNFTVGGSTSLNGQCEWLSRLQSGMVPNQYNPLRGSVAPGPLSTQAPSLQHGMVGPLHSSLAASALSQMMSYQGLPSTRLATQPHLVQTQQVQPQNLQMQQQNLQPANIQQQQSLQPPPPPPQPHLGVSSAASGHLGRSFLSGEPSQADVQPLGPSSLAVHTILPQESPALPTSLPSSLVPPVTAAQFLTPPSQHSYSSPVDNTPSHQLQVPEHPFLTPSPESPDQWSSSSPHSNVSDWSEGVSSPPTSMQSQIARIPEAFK
T1 sequence (P46531 19-2555): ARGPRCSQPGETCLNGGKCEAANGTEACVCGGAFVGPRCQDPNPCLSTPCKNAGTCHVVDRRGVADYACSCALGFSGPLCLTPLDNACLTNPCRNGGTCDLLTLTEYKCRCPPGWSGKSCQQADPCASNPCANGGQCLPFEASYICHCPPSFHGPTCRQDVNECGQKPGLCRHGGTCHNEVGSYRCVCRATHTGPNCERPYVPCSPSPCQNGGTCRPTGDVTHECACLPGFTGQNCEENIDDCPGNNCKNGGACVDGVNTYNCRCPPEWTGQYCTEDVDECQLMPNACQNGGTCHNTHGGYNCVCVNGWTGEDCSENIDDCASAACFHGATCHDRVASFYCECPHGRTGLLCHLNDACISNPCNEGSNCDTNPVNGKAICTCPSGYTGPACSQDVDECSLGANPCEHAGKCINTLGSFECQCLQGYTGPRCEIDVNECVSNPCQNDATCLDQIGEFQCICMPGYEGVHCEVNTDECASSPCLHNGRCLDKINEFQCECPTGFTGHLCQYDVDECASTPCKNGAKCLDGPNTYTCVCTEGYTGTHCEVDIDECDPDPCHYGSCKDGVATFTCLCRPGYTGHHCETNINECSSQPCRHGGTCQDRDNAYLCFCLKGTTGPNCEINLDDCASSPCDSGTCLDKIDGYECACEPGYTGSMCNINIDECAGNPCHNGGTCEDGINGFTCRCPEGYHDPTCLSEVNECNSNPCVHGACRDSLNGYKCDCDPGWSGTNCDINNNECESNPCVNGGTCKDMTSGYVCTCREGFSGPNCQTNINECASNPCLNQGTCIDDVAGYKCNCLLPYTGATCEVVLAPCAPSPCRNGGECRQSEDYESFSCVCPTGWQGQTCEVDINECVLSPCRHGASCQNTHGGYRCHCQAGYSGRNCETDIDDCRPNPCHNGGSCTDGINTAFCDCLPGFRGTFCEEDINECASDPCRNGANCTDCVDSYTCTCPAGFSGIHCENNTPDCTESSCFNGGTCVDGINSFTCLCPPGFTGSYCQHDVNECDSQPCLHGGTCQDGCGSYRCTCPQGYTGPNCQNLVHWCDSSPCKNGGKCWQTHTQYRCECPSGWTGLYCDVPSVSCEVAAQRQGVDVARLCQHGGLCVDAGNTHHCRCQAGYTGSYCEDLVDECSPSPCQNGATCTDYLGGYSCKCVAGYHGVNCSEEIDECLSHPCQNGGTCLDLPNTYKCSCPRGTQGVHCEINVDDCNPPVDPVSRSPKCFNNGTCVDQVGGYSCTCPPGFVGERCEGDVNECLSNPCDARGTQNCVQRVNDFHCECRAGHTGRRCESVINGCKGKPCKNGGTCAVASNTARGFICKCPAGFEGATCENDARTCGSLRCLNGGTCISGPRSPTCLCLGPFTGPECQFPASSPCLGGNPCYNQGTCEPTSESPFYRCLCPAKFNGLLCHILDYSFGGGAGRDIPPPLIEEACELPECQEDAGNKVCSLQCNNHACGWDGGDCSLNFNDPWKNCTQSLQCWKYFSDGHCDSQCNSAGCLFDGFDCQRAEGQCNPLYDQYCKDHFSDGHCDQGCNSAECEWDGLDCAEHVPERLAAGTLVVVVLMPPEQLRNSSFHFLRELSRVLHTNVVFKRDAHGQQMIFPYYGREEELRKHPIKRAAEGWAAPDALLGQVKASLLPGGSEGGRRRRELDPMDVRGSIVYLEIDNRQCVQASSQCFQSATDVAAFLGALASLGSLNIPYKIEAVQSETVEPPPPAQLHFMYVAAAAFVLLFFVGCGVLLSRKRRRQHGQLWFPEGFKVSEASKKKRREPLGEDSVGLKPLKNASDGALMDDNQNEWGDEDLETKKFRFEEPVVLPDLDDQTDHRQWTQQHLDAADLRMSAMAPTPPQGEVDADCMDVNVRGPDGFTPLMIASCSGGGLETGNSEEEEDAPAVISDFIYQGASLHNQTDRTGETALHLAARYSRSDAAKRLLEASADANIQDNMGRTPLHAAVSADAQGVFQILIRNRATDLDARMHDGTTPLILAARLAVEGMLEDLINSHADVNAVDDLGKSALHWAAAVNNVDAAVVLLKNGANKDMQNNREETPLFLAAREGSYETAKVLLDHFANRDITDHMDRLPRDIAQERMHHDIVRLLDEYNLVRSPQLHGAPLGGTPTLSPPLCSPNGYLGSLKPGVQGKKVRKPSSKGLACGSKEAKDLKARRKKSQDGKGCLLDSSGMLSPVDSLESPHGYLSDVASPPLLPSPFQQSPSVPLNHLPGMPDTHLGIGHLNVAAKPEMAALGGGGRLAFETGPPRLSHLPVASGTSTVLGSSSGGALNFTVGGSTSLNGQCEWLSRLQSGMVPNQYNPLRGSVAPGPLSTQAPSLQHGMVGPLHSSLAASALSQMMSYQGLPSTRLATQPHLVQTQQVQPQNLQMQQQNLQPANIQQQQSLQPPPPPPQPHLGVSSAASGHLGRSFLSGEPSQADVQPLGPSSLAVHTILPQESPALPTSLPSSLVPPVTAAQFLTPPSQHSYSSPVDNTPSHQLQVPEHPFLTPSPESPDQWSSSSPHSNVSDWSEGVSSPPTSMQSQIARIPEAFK
T4 sequence (P46531 19-2555 L1593P limits assumed): as the sequence (P46531 19-2555) above, with L1575P counted along it

B1: humanized 351 VH1.0/VL1.4 (antibody, human IgG1, V domains shown)
VH: EVQLVESGGGLVQPGGSLRLSCAASGFTFSHYGMNWVRQAPGKGLEWVASISRSGSYIRYVDTVKGRFTISRDNAKNSLYLQMNSLRAEDTAVYYCAREGQFGDYFEYWGQGTLVTVSS
VL: DIQMTQSPSSLSASVGDRVTITCRASQKISTNLHWYQQKPGKAPKLLIKYASQTISGVPSRFSGSGSGTDFTLTISSLQPEDFATYYCQQTNSWPLTFGGGTKVEIK
Neutralization activity (Human RGA), IC50 [1]: 0.17 nM
Neutralization activity (murine RGA), IC50 [2]: 0.49 nM
Fold difference from rat 351 [3]: 2.1 fold
EC50 [4]: 0.1 nM
EC50 [5]: 0.07 nM
Kd [6]: 4.88 nM and 4.9 nM
koff [6]: 0.00223 s⁻¹
kon [6]: 458000 M⁻¹ s⁻¹
EC50 [7]: 2.11 nM

B2: humanized 438 VH1.1/VL1.8 (antibody, human IgG1, kappa, V domains shown)
VH: EVQLVESGGGLVQPGGSLRLSCAASGFTFSSFAMAWVRQAPGKGLEWVASISYGGADTYYRDSVKGRFTISRDNAKNSLYLQMNSLRAEDTAVYYCAKDLPYYGYTPFVMDAWGQGTLVTVSS
VL: DIQMTQSPSSLSASVGDRVTITCRASQRINTDLHWYQQKPGKAPKVLIKFASQTISGVPSRFSGSGSGTDFTLTISSLQPEDFATYYCQQSNSWPYTFGQGTKLEIKR
notes: full chains (VH1.1)-hIgG1-3M and (VL1.8)-hkappa
IC50, human Notch1 reporter gene co-culture assay (DLL4-HEK293) [8]: 0.17 nM
IC50, mouse Notch1 reporter gene co-culture assay (DLL4-HEK293) [9]: 0.46 nM
IC50, MTS viability assay of HPB-ALL leukemia cells [10]: 2.26 nM
Fold difference from rat 438 [11]: 0.48 fold
EC50 [4]: 0.203 nM
EC50 [5]: 0.149 nM
EC50 [12]: 1.2 nM
Kd [6]: 2.1 nM
koff [6]: 0.000449 s⁻¹
kon [6]: 214000 M⁻¹ s⁻¹
EC50 [13]: 3.2 nM

B3: rat 351-mIgG1 (antibody, V domains shown)
VH: EVQLVESGGGLVQPGRSLKVSCLASGFTFSHYGMNWIRQAPGKGLDWVASISRSGSYIRYVDTVKGRFTVSRDIAKNTLYLQMTSLRSEDTALYYCAREGQFGDYFEYWGQGVMVTVSS
VL: DIMLTQSPATLSVTPGERISLSCRASQKISTNLHWYQQKPNESPRILIKYASQTISGIPSRFSGSGSGTDFTLHINTVEPEDFSVYYCQQTNSWPLTFGSGTKLEIK
Firefly/Renilla Luminescence, human Notch1 reporter cells + 5 mM EDTA, 0.01 µg/mL antibody [14]: 304 Firefly/Renilla ratio
Firefly/Renilla Luminescence, human Notch1 reporter cells + 5 mM EDTA, 0.1 µg/mL antibody [14]: 202 Firefly/Renilla ratio
Firefly/Renilla Luminescence, human Notch1 reporter cells + 5 mM EDTA, 1 µg/mL antibody [14]: 84.8 Firefly/Renilla ratio
Firefly/Renilla Luminescence, human Notch1 reporter cells + 5 mM EDTA, 10 µg/mL antibody [14]: 62.1 Firefly/Renilla ratio
Firefly/Renilla Luminescence, human Notch1 reporter cells + 5 mM EDTA, 30 µg/mL antibody [14]: 57 Firefly/Renilla ratio
Neutralization activity (Human RGA), IC50 [1]: 0.22 nM
Neutralization activity (murine RGA), IC50 [2]: 0.42 nM
Normalized Notch1^ICD level, HPB-ALL cells, 0.001 µg/ml antibody [15]: 0.833 relative to untreated
Normalized Notch1^ICD level, HPB-ALL cells, 0.01 µg/ml antibody [15]: 0.886 relative to untreated
Normalized Notch1^ICD level, HPB-ALL cells, 0.1 µg/ml antibody [15]: 0.156 relative to untreated
Normalized Notch1^ICD level, HPB-ALL cells, 1 µg/ml antibody [15]: 0.075 relative to untreated
Normalized Notch1^ICD level, HPB-ALL cells, 10 µg/ml antibody [15]: 0.02 relative to untreated
Normalized Notch1^ICD level, CCRF-CEM cells, 0.001 µg/ml antibody [16]: 0.982 relative to untreated
Normalized Notch1^ICD level, CCRF-CEM cells, 0.01 µg/ml antibody [16]: 1.04 relative to untreated
Normalized Notch1^ICD level, CCRF-CEM cells, 0.1 µg/ml antibody [16]: 0.413 relative to untreated
Normalized Notch1^ICD level, CCRF-CEM cells, 1 µg/ml antibody [16]: 0.043 relative to untreated
Normalized Notch1^ICD level, CCRF-CEM cells, 10 µg/ml antibody [16]: 0.034 relative to untreated
IC50, MTS viability assay of HPB-ALL leukemia cells [10]: 1.27 nM

B4: rat 351(R58Y/V60A)-mIgG1 (antibody, V domains shown)
VH: B3 VH with R59Y, V61A
VL: B3 VL
IC50, Notch1 signaling inhibition co-culture reporter assay [17]: 0.16 nM
Maximal Inhibition (%), Notch1 signaling inhibition co-culture reporter assay [17]: 95.3%
IC50, MTS viability assay of HPB-ALL leukemia cells [10]: 2.49 nM

B5: rat 351(R58Y)-mIgG1 (antibody, V domains shown)
VH: B3 VH with R59Y
VL: B3 VL
IC50, Notch1 signaling inhibition co-culture reporter assay [17]: 0.21 nM
Maximal Inhibition (%), Notch1 signaling inhibition co-culture reporter assay [17]: 95.3%
IC50, MTS viability assay of HPB-ALL leukemia cells [10]: 2.17 nM

B6: parental rat 351 (antibody, V domains shown)
VH: B3 VH
VL: B3 VL
notes: Rat monoclonal IgG from a hybridoma
Neutralization activity (Human RGA), IC50 [18]: 0.4 nM
Neutralization activity (murine RGA), IC50 [19]: 0.3 nM
IC50, Notch1 signaling inhibition co-culture reporter assay [17]: 0.19 nM
Maximal Inhibition (%), Notch1 signaling inhibition co-culture reporter assay [17]: 87.5%
Normalized Notch1^ICD level, CCD1076SK fibroblasts on DLL4, 0.001 µg/ml antibody [20]: 0.826 relative to untreated
Normalized Notch1^ICD level, CCD1076SK fibroblasts on DLL4, 0.01 µg/ml antibody [20]: 0.848 relative to untreated
Normalized Notch1^ICD level, CCD1076SK fibroblasts on DLL4, 0.1 µg/ml antibody [20]: 0.554 relative to untreated
Normalized Notch1^ICD level, CCD1076SK fibroblasts on DLL4, 1 µg/ml antibody [20]: 0.393 relative to untreated
Normalized Notch1^ICD level, CCD1076SK fibroblasts on DLL4, 10 µg/ml antibody [20]: 0.302 relative to untreated
Fold difference from rat 351 [3]: 1 fold
EC50 [4]: 0.1 nM
EC50 [5]: 0.07 nM
Kd [6]: 2.33 nM and 2.3 nM
koff [6]: 0.00102 s⁻¹
kon [6]: 439000 M⁻¹ s⁻¹
EC50 [7]: 4.43 nM
